Measured values as given in patent publication US20250282887A1 (Amgen, published 2025).
Where a chain is given by its changes, count along the chain named.

T1: Human MAGEB2 (Melanoma-associated antigen B2) (human, UniProt O15479 1-319)
T1 construct: Intracellular antigen detected by IHC in FFPE material: CHO cells transfected with human MAGEB2 (mCherry vector with Myc/DDK tags, or ORF without tags)
T1 sequence: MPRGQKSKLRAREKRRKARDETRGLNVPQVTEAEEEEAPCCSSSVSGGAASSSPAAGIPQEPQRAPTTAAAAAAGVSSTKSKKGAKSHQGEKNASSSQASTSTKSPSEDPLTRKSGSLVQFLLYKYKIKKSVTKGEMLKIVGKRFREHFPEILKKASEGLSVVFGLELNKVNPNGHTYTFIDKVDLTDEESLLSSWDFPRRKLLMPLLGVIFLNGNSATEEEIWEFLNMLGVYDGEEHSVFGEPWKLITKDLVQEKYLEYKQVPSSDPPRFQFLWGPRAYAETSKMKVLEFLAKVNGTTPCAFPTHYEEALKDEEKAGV

T2: human MAGEB16 (human, UniProt A2A368 1-324)
T2 construct: whole, on cells; FFPE cell pellets
T2 sequence (looked up): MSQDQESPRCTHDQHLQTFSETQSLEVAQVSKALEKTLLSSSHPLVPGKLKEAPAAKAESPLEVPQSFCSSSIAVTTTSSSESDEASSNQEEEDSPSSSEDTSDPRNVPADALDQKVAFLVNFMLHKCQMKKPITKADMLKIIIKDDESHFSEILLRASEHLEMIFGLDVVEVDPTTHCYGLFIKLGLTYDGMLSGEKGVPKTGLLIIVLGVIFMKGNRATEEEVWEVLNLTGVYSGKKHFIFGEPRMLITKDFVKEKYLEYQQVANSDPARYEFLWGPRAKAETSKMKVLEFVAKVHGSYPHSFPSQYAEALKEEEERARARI

B1: 1I14 (antibody, V domains shown)
VH: QSVEESGGRLVTPGTPLTLTCTISGFSLSSYAMSWVRQAPGKGLEWIGSIGGGGSAVYASWAKGRFTISKTSTTVDLRITSPTTEDTAMYFCGRGFYSIDLWGPGTLVTVSS
VL: DVVMTQTPASVEATVGGTVTIKCQSSQSVYDNNALAWYQQNAGQRPRLLIYGASTLASGVPSRFSASGSGTEFTLTISDLECADAATYYCQCTYYVSSYQNDFGGGTEVVVKG
notes: also called MAGE-B2 (1i14)
B2: 1C3 (antibody, V domains shown)
VH: QSLEESGGGLVQPEGSLTLTCTAFGVTLTNYYICWVRQAPGKGLEWVGCIDNANGRTYYASWAKGRFTISKTSSTTGTLQMTSLTAADTATYFCARSLATPLWGPGTLVTVSS
VL: DIVMTQTPSSVEAAVGGTVTIKCQASQNISSYLAWYQQKPGQPPKLLIYRASTLASGVPSRFKGSGSGTQFTLTISDLECADAATYYCQSYDDSRSSNFFYAFGGGTEVVVKG
notes: also called MAGE-B2 (IC3); anti-MAGEB2 antibody 1C3
B3: 4G17 (antibody, IgG1, V domains shown)
VH: B2 VH with F24S, T29S, V47I, A53V
VL: DIVMTQTPASVEAAVGGTVTIKCQASQNIDSYLAWYQQKPGQPPKLLIYRASTLASGVPSRFKGSGSGTEFTLTISDLECADAATYYCQSYDDSRSSSFFYGFGGGTEVVVK
notes: Rabbit monoclonal IgG1; Tested as supernatant and as small batch purified antibody; also called MAGE-B2 (4G17); anti-MAGEB2 antibody 4G17
B4: 1J15 (antibody, IgG1, V domains shown)
VH: B2 VH with V26F, T29N, V47I, G48A, G77V, A99S
VL: B3 VL with N28S, D30S, A34S, K63R, E70Q, R95S, S96D, S97N, S98N, K112R
notes: Rabbit monoclonal IgG1; Tested as supernatant and as small batch purified antibody; also called MAGE-B2 (IJ15); anti-MAGEB2 antibody 1J15

target: T1, Human MAGEB2 (Melanoma-associated …); assay: IHC on FFPE CFPAC-1 cells (endogenous MAGEB2)
Procedure: (§1) FFPE samples were sectioned at 4 μm and mounted on positive charged glass slides. After mounting, paraffin sections were air-dried at room temperature. FFPE TMA samples were received as freshly sectioned and mounted on glass slides. The fully automated IHC assay was performed on a Discovery Ultra Stainer (Ventana Medical Systems, Tucson, AZ) using Ventana Anti-Rabbit HQ (cat #760-4815), Ventana Anti-HQ HRP (cat #760-4820), and Ventana Antibody Diluent with Casein (cat #760-219) (Ventana Medical Systems, Tucson, AZ). The slides were baked on the Discovery Ultra Stainer at 60° C. for 8 minutes, de-paraffinized with Ventana Discovery wash (cat #950-510) for 3 cycles (8 minutes each) at 69° C., and underwent cell conditioning (target retrieval) at 95° C. for 16 minutes (for cell arrays) or 32 minutes (tissues or TMAs) in CC1 buffer (cat #950-500). Following this, slides were incubated with Background Sniper (cat #BS966M, Biocare Medical, Pacheco, CA) in a Ventana Option Prep kit (cat #771-751) for 28 minutes, incubated with CM inhibitor (a part of the Ventana DAB kit cat #760-159) for 12 minutes, and incubated for 1 h at RT with MAGE-B2 antibody diluted with Ventana diluent with Casein in a Ventana Prep kit (cat #770-001) (working concentration at 0.1 μg/ml for cell pellet, or 1-5 ug/ml for tissues) or with a matched concentration of isotype control Rabbit IgG1 antibody. Following this, slides were incubated with the Ventana Anti-Rabbit HQ (cat #760-4815) for 28 minutes at RT, Ventana Anti-HQ HRP (cat #760-4820) for 28 minutes at RT, and signals detected with Ventana DAB chromogen kit (cat #760-159) for 5 minutes at RT. Slides were counterstained with Ventana Hematoxylin II (cat #5266726001) for 8 minutes and Ventana Bluing reagent (cat #526676900) for 4 minutes. Slides were coverslipped and digitized using an Aperio AT2 scanner (Leica Biosystems Inc, Buffalo Grove, IL).

| IHC % Frequency [%] | Binder |
| --- | --- |
| 0 | B1 |
| 0 | B2 |
| 0 | B3 |
| 0 | B4 |

target: T3, human MAGEA3 (human, UniProt P43357 1-314); assay: IHC, FFPE CHO cells transfected with human MAGEA3
T3 construct: whole, on cells; FFPE cell pellets
T3 sequence (P43357 whole entry): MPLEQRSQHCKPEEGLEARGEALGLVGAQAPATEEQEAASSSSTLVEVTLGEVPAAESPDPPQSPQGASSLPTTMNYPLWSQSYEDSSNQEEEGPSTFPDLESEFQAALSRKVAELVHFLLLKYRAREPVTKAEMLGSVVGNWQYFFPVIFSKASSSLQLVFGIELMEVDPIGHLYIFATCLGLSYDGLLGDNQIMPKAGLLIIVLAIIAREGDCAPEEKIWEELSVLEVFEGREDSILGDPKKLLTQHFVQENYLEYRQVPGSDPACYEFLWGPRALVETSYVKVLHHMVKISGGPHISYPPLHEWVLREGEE
Procedure: as §1

| binding result | Binder |
| --- | --- |
| no binding (tested: 0.1 µg/ml) | B1 |
| no binding (tested: 0.1 µg/ml) | B2 |
| no binding (tested: 0.1 µg/ml) | B3 |
| no binding (tested: 0.1 µg/ml) | B4 |

target: T4, human MAGEA12 (human, UniProt P43365 1-314); assay: IHC, FFPE CHO cells transfected with human MAGEA12
T4 construct: whole, on cells; FFPE cell pellets
T4 sequence (P43365 whole entry): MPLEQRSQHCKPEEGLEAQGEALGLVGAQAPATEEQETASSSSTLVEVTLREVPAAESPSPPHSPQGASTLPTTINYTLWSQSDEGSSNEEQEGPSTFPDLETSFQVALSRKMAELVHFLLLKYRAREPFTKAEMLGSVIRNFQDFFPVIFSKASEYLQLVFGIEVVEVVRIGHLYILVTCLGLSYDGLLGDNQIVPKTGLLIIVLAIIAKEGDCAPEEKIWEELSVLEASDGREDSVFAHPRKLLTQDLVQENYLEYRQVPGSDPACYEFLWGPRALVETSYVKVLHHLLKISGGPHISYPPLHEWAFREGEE
From the text: (§2) Negative control cells included parental Chinese hamster ovary (CHO) cells, CHO cells stably transfected with mCherry Vector Control (minus Myc/DDK tags), CHO cells stably transfected with mCherry-human DCAF4L2 (plus Myc/DDK tags). The cross-reactivity control cells included CHO cells transfected with mCherry Vector Control (plus Myc/DDK tags) with one of the human MAGE-B or MAGE-A family members (MAGEA1, MAGEA2, MAGEA3, MAGEA4, MAGEA5, MAGEA6, MAGEA8, MAGEA9, MAGEA11, MAGEA12, MAGEB1, MAGEB3, MAGEB4, MAGEB5, MAGEB6, MAGEB10, MAGEB16, MAGEB17, MAGEB18). Positive control cell lines included CHO cells transfected with mCherry Vector (plus Myc/DDK tags) with human MAGE-B2 or CHO cells transfected with mCherry Vector (open reading frame (ORF); minus Myc/DDK tags) with human MAGEB2, and thirteen human cancer cell lines with known endogenous RNA expression level of MAGEB2 (U266B1, T98G, KMM-1, U20S, CFPAC-1, SCaBER, UACC-257, CFPAC-1, VMRC-LCD, NCI-H1703, UM-UC-3, NCI-H1395, NCIH82).
as §1, with “antibody.” for “antibody. Following this, slides were incubated with the Ventana Anti-Rabbit HQ (cat #760-4815) for 28 minutes at RT, Ventana Anti-HQ HRP (cat #760-4820) for 28 minutes at RT, and signals detected with Ventana DAB chromogen kit (cat #760-159) for 5 minutes at RT. Slides were counterstained with Ventana Hematoxylin II (cat #5266726001) for 8 minutes and Ventana Bluing reagent (cat #526676900) for 4 minutes. Slides were coverslipped and digitized using an Aperio AT2 scanner (Leica Biosystems Inc, Buffalo Grove, IL).”

| binding result | Binder |
| --- | --- |
| no binding (tested: 0.1 µg/ml) | B1 |
| no binding (tested: 0.1 µg/ml) | B2 |
| no binding (tested: 0.1 µg/ml) | B3 |
| no binding (tested: 0.1 µg/ml) | B4 |

target: T2, human MAGEB16; assay: IHC, FFPE CHO cells transfected with human MAGEB16
From the text: as §2
as §1, with “antibody.” for “antibody. Following this, slides were incubated with the Ventana Anti-Rabbit HQ (cat #760-4815) for 28 minutes at RT, Ventana Anti-HQ HRP (cat #760-4820) for 28 minutes at RT, and signals detected with Ventana DAB chromogen kit (cat #760-159) for 5 minutes at RT. Slides were counterstained with Ventana Hematoxylin II (cat #5266726001) for 8 minutes and Ventana Bluing reagent (cat #526676900) for 4 minutes. Slides were coverslipped and digitized using an Aperio AT2 scanner (Leica Biosystems Inc, Buffalo Grove, IL).”

| binding result | Binder |
| --- | --- |
| no binding (tested: 0.1 µg/ml) | B1 |
| no binding (tested: 0.1 µg/ml) | B2 |
| no binding (tested: 0.1 µg/ml) | B3 |
| no binding (tested: 0.1 µg/ml) | B4 |
